These results are taken from article PMC3858276, “Completion of Proteomic Data Sets by Kd Measurement Using Cell-Free Synthesis of Site-Specifically Labeled Proteins” (PLoS ONE, 2013).

Where no end group is shown, it is not given here.

B3: phosphorylated SNAP-ADAP fusion protein (ADAP amino acids 570-690) (domain or fragment, human, UniProt O15117 570-690, looked up)
chain: DYDSLKLKKDSLGAPSRPIEDDQEVYDDVAEQDDISSHSQSGSGGIFPPPPDDDIYDGIEEEDADDGFPAPPKQLDMGDEVYDDVDTSDFPVSSAEMSQGTNVGKAKTEEKDLKKLKKQEK
modifications: phosphotyrosine (in vitro phosphorylation by Fyn kinase, approx. 90% of each phosphorylation site; sites in Table S1); BG-647 dye on the SNAP-tag
notes: adhesion and degranulation promoting adapter protein (ADAP), human, section 570-690; Cloned into the SNAP-tag vector pSET7-26b (NEB) via BamHI, XhoI; also called ADAP-P; phosphorylated ADAP; not shown: SNAP-tag, N-terminal, kept

Holding throughout (conditions): one partner purified
The target in assay [1] is B3. Briefly: MST; SH2 proteins (only partly purified) serially diluted in 1x PBS with 1.75% (v/v) E. coli extract; fluorescent ADAP at 12 nM; 5 min at RT; Monolith NT.115.
Assay [2] concerns the target T1, Rasa1b (Rasa1 sequence 174-447) without biotin (for MST) (UniProt P20936 174-447).
T1 construct: same linear template as m11, cloned into pIX3.0; source: cell-free (RTS500 PM HY kit, plasmid pIX3.0), partly purified by buffer exchange to PBS and ultracentrifugation
T1 sequence (looked up): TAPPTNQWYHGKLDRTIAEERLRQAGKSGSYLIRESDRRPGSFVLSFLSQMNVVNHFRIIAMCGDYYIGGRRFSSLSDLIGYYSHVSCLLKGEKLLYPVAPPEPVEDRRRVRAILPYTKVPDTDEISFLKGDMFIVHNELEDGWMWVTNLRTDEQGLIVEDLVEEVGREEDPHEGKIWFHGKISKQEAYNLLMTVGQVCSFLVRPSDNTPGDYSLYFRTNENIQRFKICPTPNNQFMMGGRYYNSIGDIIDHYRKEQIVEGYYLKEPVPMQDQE
The description is as above.

Assay [3] deals with T2, Src SH2 domain without biotin (for MST) (UniProt P12931 151-248).
T2 construct: Src, SH2 domain; same linear template as m6, cloned into pIX3.0; source: cell-free (RTS500 PM HY kit, plasmid pIX3.0), partly purified by buffer exchange to PBS and ultracentrifugation
Kind of assay: MST; as for ADAP, with the fluorescent YEEI fusion and 0.05% Tween-20 (v/v) added to the interaction buffer; SH2 proteins (only partly purified) serially diluted.

B1: Lck SH2 domain without biotin (for MST) (domain or fragment, UniProt P06239 127-224, looked up)
chain: WFFKNLSRKDAERQLLAPGNTHGSFLIRESESTAGSFSLSVRDFDQNQGEVVKHYKIRNLDNGGFYISPRITFPGLHELVRHYTNASDGLCTRLSRPC
notes: Lck, SH2 domain; same linear template as m8, cloned into pIX3.0; source: cell-free (RTS500 PM HY kit, plasmid pIX3.0), partly purified by buffer exchange to PBS and ultracentrifugation
For the molecule B1, the Kd (usually the equilibrium constant for the complex coming apart) in assay [1] was about 1000 nM.

B2: SH2D1A without biotin (for MST) (natural protein, UniProt O60880 1-128, looked up)
chain: MDAVAVYHGKISRETGEKLLLATGLDGSYLLRDSESVPGVYCLCVLYHGYIYTYRVSQTETGSWSAETAPGVHKRYFRKIKNLISAFQKPDQGIVIPLQYPVEKKSSARSTQGTTGIREDPDVCLKAP
notes: SH2D1A; same linear template as m7, cloned into pIX3.0; source: cell-free (RTS500 PM HY kit, plasmid pIX3.0), partly purified by buffer exchange to PBS and ultracentrifugation
For B2, the “fold weaker binding than the SH2 domains of Src, Lck and Fyn” value in assay [1] came to 6 fold.
B3 showed a Kd in assay [2] of about 100 nM.

B4: phosphorylated SNAP-YEEI fusion (middle T antigen aa 315-331) (peptide)
chain: THQEEEEPQYEEIPIYL
modifications: not fully specified; also: tyrosine phosphorylation in vitro by Fyn, degree not placed
notes: Middle T antigen of Hamster Polyomavirus, aa 315-331 with the Y324EEI motif; also called phosphorylated YEEI; YEEI fusion construct; not shown: SNAP-tag, N-terminal, kept
B4 displayed a Kd in assay [3] of about 515 nM.

B5: SLP-76 SH2 domain without biotin (for MST) (domain or fragment, UniProt Q13094 422-530, looked up)
chain: WYVSYITRPEAEAALRKINQDGTFLVRDSSKKTTTNPYVLMVLYKDKVYNIQIRYQKESQVYLLGTGLRGKEDFLSVSDIIDYFRKMPLLLIDGKNRGSRYQCTLTHAA
notes: SLP-76; same linear template as m10, cloned into pIX3.0; source: cell-free (RTS500 PM HY kit, plasmid pIX3.0), partly purified by buffer exchange to PBS and ultracentrifugation
B5: the Kd in assay [1] was about 400 nM.

B6: RasaN (N-terminal SH2 domain of Rasa1) without biotin (for MST) (domain or fragment, UniProt P20936 181-272, looked up)
chain: WYHGKLDRTIAEERLRQAGKSGSYLIRESDRRPGSFVLSFLSQMNVVNHFRIIAMCGDYYIGGRRFSSLSDLIGYYSHVSCLLKGEKLLYPV
notes: Rasa1, isolated N-terminal SH2 domain; same linear template as m17, cloned into pIX3.0; source: cell-free (RTS500 PM HY kit, plasmid pIX3.0), partly purified by buffer exchange to PBS and ultracentrifugation
Regarding B6, in assay [1], the Kd was about 100 nM.
